Values belong to the molecule of their own block, whether it stands above or below them.
Columns and labels:
[1] = molecular target: MapSPARTA (binary complex of TIR-APAZ and Ago), wild type (Maribacter polysiphoniae); experiment: cryo-EM structure
[2] = molecular target: MapSPARTA (binary complex of TIR-APAZ and Ago), wild type (Maribacter polysiphoniae); experiment: cryo-EM structure; remark: listed apart in the source
[3] = molecular target: MapSPARTA (binary complex of TIR-APAZ and Ago), wild type (Maribacter polysiphoniae); experiment: SEC
[4] = molecular target: MapSPARTA (binary complex of TIR-APAZ and Ago), wild type (Maribacter polysiphoniae); experiment: cryo-EM structure; remark: listed apart in the source
[5] = molecular target: MapSPARTA V113R (TIR-APAZ V113R with Ago) (Maribacter polysiphoniae); experiment: SEC
[6] = molecular target: MapSPARTA V113R/D106R/D111R (TIR-APAZ triple mutant with Ago) (Maribacter polysiphoniae); experiment: SEC
[7] = molecular target: T1, MapSPARTA WT (Ago + TIR-APAZ) (Maribacter polysiphoniae, UniProt A0A316E3U6;A0A316E683 1-507;1-450); experiment: BLI
T1 sequence 1: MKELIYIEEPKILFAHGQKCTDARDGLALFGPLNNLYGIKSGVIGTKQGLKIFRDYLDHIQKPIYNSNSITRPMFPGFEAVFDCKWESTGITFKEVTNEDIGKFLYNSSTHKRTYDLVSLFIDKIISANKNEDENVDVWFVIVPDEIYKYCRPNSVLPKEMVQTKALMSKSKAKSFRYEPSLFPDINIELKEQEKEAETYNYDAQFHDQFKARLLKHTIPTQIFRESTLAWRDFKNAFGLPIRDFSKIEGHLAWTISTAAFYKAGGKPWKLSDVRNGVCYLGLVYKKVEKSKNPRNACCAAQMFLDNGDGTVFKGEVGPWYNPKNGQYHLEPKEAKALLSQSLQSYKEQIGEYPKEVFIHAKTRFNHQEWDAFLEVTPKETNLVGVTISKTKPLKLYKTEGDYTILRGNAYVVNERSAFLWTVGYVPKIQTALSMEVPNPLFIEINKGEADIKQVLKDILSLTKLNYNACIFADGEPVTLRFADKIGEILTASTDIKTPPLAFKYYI
T1 sequence 2: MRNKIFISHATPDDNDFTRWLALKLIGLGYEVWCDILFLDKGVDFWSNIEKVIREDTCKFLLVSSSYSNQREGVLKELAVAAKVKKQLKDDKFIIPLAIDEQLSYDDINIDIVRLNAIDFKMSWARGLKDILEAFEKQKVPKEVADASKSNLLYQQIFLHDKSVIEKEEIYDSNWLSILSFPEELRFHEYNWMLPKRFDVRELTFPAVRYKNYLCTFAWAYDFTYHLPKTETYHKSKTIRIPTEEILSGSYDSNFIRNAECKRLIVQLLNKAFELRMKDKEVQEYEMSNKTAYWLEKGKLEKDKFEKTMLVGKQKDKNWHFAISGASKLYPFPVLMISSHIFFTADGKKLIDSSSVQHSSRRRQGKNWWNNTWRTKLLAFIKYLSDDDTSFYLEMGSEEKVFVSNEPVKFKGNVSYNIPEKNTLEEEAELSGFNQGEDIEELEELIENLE

- stoichiometry N [1]: 2
- stoichiometry N [2]: 4
- stoichiometry N [3]: 4
- stoichiometry N [4]: 4
Molecule: MapSPARTA (binary complex of TIR-APAZ and Ago), wild type

- stoichiometry N [5]: 2
Molecule: MapSPARTA V113R (TIR-APAZ V113R with Ago) (complex)

- stoichiometry N [6]: 2
Molecule: MapSPARTA V113R/D106R/D111R (TIR-APAZ triple mutant with Ago) (complex)

B1: guide RNA + biotinylated target DNA (BLI) (DNA:RNA)
RNA: UGACGGCUCUAAUCUAUUAGU
DNA: CAACTAATAGATTAGAGCCGTCAAT
modifications: 5'-phosphate on guide RNA
- Kd [7]: 13.5 nM

— article PMC11332595
